Experimental data as given in paper PMC4277623, “Synthesis and Preliminary Evaluation of a New ^99mTc Labeled Substance P Analogue as a Potential Tumor Imaging Agent” (Iranian Journal of Pharmaceutical Research : IJPR, 2015).
Read-outs that look alike come from different tables or passages of the source.

Experiments:
[1] = Biodistribution in normal mice; type: in vivo; details: for tissue uptake at 1 h / tissue uptake at 4 h / tissue uptake at 24 h: male, mouse, iv, total radioactivity
Protocol: Male albino mice in a weight range of18-24 g were used for normal mice treatments and malenude mice (6 to 8 weeks old) were used for in-vivo tumor treatments. The mice were housed at controlled room temperature (25 °C) in a 12 h light/12 h dark schedule. They were kept in standard cages with free access to food and water except during the experiments. The nude mice were grown and kept in isolated sterile condition. All animal experiments were carried out in compliance with our institutional ethical guidelines.
Freshly labeled ^99mTc-HYNIC-Tyr^8-Met(O)^11-SP (purity>98%) was diluted to 3.3 nmol/mL with normal saline and a dose of 800 µCi/ 330 pmol in 100 µL was injected to each mouse via the tail vein. Also agroup of three animals (blocked group) were given150 µg of SP in 50 µL salineco-injected with the radiopeptide to determine the non-specific biodistribution of the radiopeptide by blocking the receptor-positive organs. After 1, 4, and 24 h post injection the mice in groups of three animals were sacrificed and organs of interest were excised. All organs and tissues were weighed, and the radioactivity was determined by gamma counter. Results were expressed as percentage of injected dose per gram (% ID/g) of tissue.

U373MG cells = experiment: Internalization and surface binding in U373MG cells; type: cell-based, human; details: for total cell uptake: 37 °C, 2.5 pmol peptide per well, % of total activity per well, triplicates; for receptor specific cell uptake: total minus nonspecific (10000 fold excess unlabeled SP)
Protocol: All the main cell studies were performed on U373MG human Glioblastoma cell lines. Cells were cultured in DMEM was supplemented with L-glutamine, antibiotics (penicillin, streptomycine, gentamycine) and10% FBS. They were grown in culture until a sufficient number of cells were available. At proper times, cells were detached by trypsin-EDTA (0.25% and 0.02%) from the culture flask and diluted with fresh medium to start a new culture or the cell line tests.
Internalization of the ^99mTclabeled HYNIC-Tyr^8-Met(O)^11-SP was studied as previously described method([32], [33]) with some modifications. In brief, newly detached U373MG cells were seeded in six-well plates 12 h before the experiment. Their culture medium was replaced by 1.2 mL of previously warmed fresh medium and cells were allowed to adjust to the medium for 1 h at 37 °C, 5% CO2. In order to determine nonspecific internalization, one line of wells per plate was incubated with 10000 fold excess of unlabeled SP (25 nmol peptide in 150 μL PBS per well) at 37°C/5% CO2 for 15 min to block NK1Rs. Then about 150kBq (2.5 pmol peptide) in 150 μL diluted solution of freshly radiolabeled peptide was added to each of the wells and were incubated (in triplicates) for 0.5, 1, 2 and 4 h at 37 °C/5% CO2, respectively. As the final volume of blocked wells was 1.5 mL, the content volume of unblocked wells was adjusted to 1.5 mL by adding 150 μL PBS per well. At each time point, radioactive media were aspirated and wells were washed twice with cold PBS (1x, pH 7.2) to remove free radio peptides. After that, cells were treated with 1 mLGly buffer (0.2M, pH adjusted to 2.8 with 1 M HCl) at room temperature for 5 min (twice) to remove cell-surface bound radio peptide. Finally, the cells were detached from the plates by three steps incubation with 1N NaOH at room temperature for 5 min to determine the internalized radio peptide. All consequent fractions were measured with a NaI γ-counter and results were expressed as percentage of total activity per well (free + cell-surface bound + internalized). Nonspecific accumulations were subtracted from totals to determine the specific accumulations.

[2] = Stability in aqueous solution; type: physicochemical; details: reaction mixture at 25 °C up to 24 h; sampled 1, 4, 24 h; RP-HPLC
Protocol: The stability of radiolabeled peptide in aqueous solution was evaluated by incubation of the reaction mixture at room temperature (25 °C)up to 24 h.Stability in human serum at 37 °C was tested in parallel after adding 100 μL of reaction mixture to 1ml of fresh human serum. The incubation mixtures were sampled at 1, 4, and 24 h time points. Serum samples (100-200 μL) were treated with ethanol (200-400 μL) and centrifuged (4000 g, 5 min, 4 °C) to precipitate the serum proteins. 20-100 μL aliquots from the supernatant were separated to assess the degradation of ^99mTc labeled peptide by RP-HPLC (method I). 100 μL aliquots from the 25 °C incubated mixture were passed through a […] to eliminate possible ^99mTc colloids and then, 5-20 μL of filtrate were analyzed by RP-HPLC as well.

[3] = Protein binding in human serum; type: in vitro ADME; details: fresh human serum, 2 h incubation; ethanol precipitation, centrifugation; γ-counter
Protocol: For protein binding estimation, freshly labeled peptide solution was filtered through a […] and a 100 μL aliquot of filtrate was incubated in 1ml fresh human serum for 2 h. After ethanol treatment and centrifugation (4000 g, 5 min, 4 °C), all the supernatant was completely removed. A slight wash with 1x phosphate-buffered saline (PBS) was done on the surface of the sediment and the eluate was added to the removed supernatant. The total activity of the supernatant and the activity of the sediment were measured by well-type NaI γ-counter to determine the percentage of radio peptide bound or transferred to albumin and other serum proteins.

SMILES: CC(C)C[C@H](NC(=O)CNC(=O)[C@H](Cc1ccc(O)cc1)NC(=O)[C@H](Cc1ccccc1)NC(=O)[C@H](CCC(N)=O)NC(=O)[C@H](CCC(N)=O)NC(=O)[C@@H]1CCCN1C(=O)[C@H](CCCCN)NC(=O)[C@@H]1CCCN1C(=O)[C@H](CCCNC(=N)N)NC(=O)c1ccc(NN)nc1)C(=O)N[C@@H](CC[S+](C)[O-])C(N)=O (stereo partly shown) [^99mTc-HYNIC-Tyr^8-Met(O)^11-SP, metal not drawn]
- %ID/g Blood ([1]; Blood, 1 h p.i., i.v., mean ± SEM, n=3): 1.02±0.16 %ID/g
- %ID/g Blood ([1]; Blood, 4 h p.i., i.v., mean ± SEM, n=3): 0.36±0.03 %ID/g
- D% Blood ([1]; Blood, decreased percent of %ID/g between 1 h and 4 h): 65%
- %ID/g Bone ([1]; Bone, 1 h p.i., i.v., mean ± SEM, n=3): 0.44±0.03 %ID/g
- D% Bone ([1]; Bone, decreased percent of %ID/g between 1 h and 4 h): 55%
- D% Heart ([1]; Heart, decreased percent of %ID/g between 1 h and 4 h): 68%
- D% Kidneys ([1]; Kidneys, decreased percent of %ID/g between 1 h and 4 h): 35%
- %ID/g L. intestine ([1]; L. intestine, 1 h p.i., i.v., mean ± SEM, n=3): 1.14±0.09 %ID/g
- %ID/g L. intestine ([1]; L. intestine, 4 h p.i., i.v., mean ± SEM, n=3): 1.33±0.28 %ID/g
- %ID/g L. intestine ([1]; L. intestine, 24 h p.i., i.v., mean ± SEM, n=3): 0.37±0.06 %ID/g
- D% L. intestine ([1]; L. intestine, decreased percent of %ID/g between 1 h and 4 h): -17%
- %ID/g Liver ([1]; Liver, 1 h p.i., i.v., mean ± SEM, n=3): 0.58±0.04 %ID/g
- %ID/g Liver ([1]; Liver, 4 h p.i., i.v., mean ± SEM, n=3): 0.38±0.05 %ID/g
- %ID/g Liver ([1]; Liver, 24 h p.i., i.v., mean ± SEM, n=3): 0.16±0.02 %ID/g
- D% Liver ([1]; Liver, decreased percent of %ID/g between 1 h and 4 h): 34%
- %ID/g Lung ([1]; Lung, 1 h p.i., i.v., mean ± SEM, n=3): 0.94±0.19 %ID/g
- %ID/g Lung ([1]; Lung, 4 h p.i., i.v., mean ± SEM, n=3): 0.33±0.02 %ID/g
- %ID/g Lung ([1]; Lung, 24 h p.i., i.v., mean ± SEM, n=3): 0.17±0.04 %ID/g
- D% Lung ([1]; Lung, decreased percent of %ID/g between 1 h and 4 h): 65%
- %ID/g Muscle ([1]; Muscle, 1 h p.i., i.v., mean ± SEM, n=3): 0.32±0.07 %ID/g
- D% Muscle ([1]; Muscle, decreased percent of %ID/g between 1 h and 4 h): 72%
- %ID/g S. intestine ([1]; S. intestine, 1 h p.i., i.v., mean ± SEM, n=3): 2.13±0.17 %ID/g
- %ID/g S. intestine ([1]; S. intestine, 4 h p.i., i.v., mean ± SEM, n=3): 0.89±0.21 %ID/g
- %ID/g S. intestine ([1]; S. intestine, 24 h p.i., i.v., mean ± SEM, n=3): 0.24±0.04 %ID/g
- D% S. intestine ([1]; S. intestine, decreased percent of %ID/g between 1 h and 4 h): 58%
- %ID/g Salivary G. ([1]; Salivary G., 1 h p.i., i.v., mean ± SEM, n=3): 0.61±0.05 %ID/g
- D% Salivary G. ([1]; Salivary G., decreased percent of %ID/g between 1 h and 4 h): 57%
- D% Spleen ([1]; Spleen, decreased percent of %ID/g between 1 h and 4 h): 30%
- D% Stomach ([1]; Stomach, decreased percent of %ID/g between 1 h and 4 h): 75%
- tissue uptake at 1 h ([1]; albino, 330 pmol per mouse, Stomach, 1 h p.i., i.v., mean ± SEM, n=3, read-out: %ID/g Stomach): 1.57 ± 0.13 %ID/g
- tissue uptake at 4 h ([1]; albino, 330 pmol per mouse, Stomach, 4 h p.i., i.v., mean ± SEM, n=3, read-out: %ID/g Stomach): 0.39 ± 0.06 %ID/g
- tissue uptake at 24 h ([1]; albino, 330 pmol per mouse, Stomach, 24 h p.i., i.v., mean ± SEM, n=3, read-out: %ID/g Stomach): 0.15 ± 0.01 %ID/g
- tissue uptake at 4 h ([1]; albino, salivary gland, 330 pmol per mouse, Salivary G., 4 h p.i., i.v., mean ± SEM, n=3, read-out: %ID/g Salivary G.): 0.26 ± 0.02 %ID/g
- tissue uptake at 24 h ([1]; albino, salivary gland, 330 pmol per mouse, Salivary G., 24 h p.i., i.v., mean ± SEM, n=3, read-out: %ID/g Salivary G.): 0.2 ± 0.02 %ID/g
- tissue uptake at 24 h ([1]; 800 uCi (330 pmol) per mouse, Blood, 24 h p.i., i.v., mean ± SEM, n=3, read-out: %ID/g Blood): 0.14 ± 0.02 %ID/g
- tissue uptake at 4 h ([1]; 800 uCi (330 pmol) per mouse, Bone, 4 h p.i., i.v., mean ± SEM, n=3, read-out: %ID/g Bone): 0.2 ± 0.02 %ID/g
- tissue uptake at 24 h ([1]; 800 uCi (330 pmol) per mouse, Bone, 24 h p.i., i.v., mean ± SEM, n=3, read-out: %ID/g Bone): 0.07 ± 0.03 %ID/g
- tissue uptake at 1 h ([1]; 800 uCi (330 pmol) per mouse, Heart, 1 h p.i., i.v., mean ± SEM, n=3, read-out: %ID/g Heart): 0.55 ± 0.14 %ID/g
- tissue uptake at 4 h ([1]; 800 uCi (330 pmol) per mouse, Heart, 4 h p.i., i.v., mean ± SEM, n=3, read-out: %ID/g Heart): 0.17 ± 0.01 %ID/g
- tissue uptake at 24 h ([1]; 800 uCi (330 pmol) per mouse, Heart, 24 h p.i., i.v., mean ± SEM, n=3, read-out: %ID/g Heart): 0.06 ± 0.04 %ID/g
- tissue uptake at 1 h ([1]; 800 uCi (330 pmol) per mouse, Kidneys, 1 h p.i., i.v., mean ± SEM, n=3, read-out: %ID/g Kidneys): 21.2 ± 0.7 %ID/g
- tissue uptake at 4 h ([1]; 800 uCi (330 pmol) per mouse, Kidneys, 4 h p.i., i.v., mean ± SEM, n=3, read-out: %ID/g Kidneys): 13.8 ± 1.96 %ID/g
- tissue uptake at 24 h ([1]; 800 uCi (330 pmol) per mouse, Kidneys, 24 h p.i., i.v., mean ± SEM, n=3, read-out: %ID/g Kidneys): 5.47 ± 0.56 %ID/g
- tissue uptake at 4 h ([1]; 800 uCi (330 pmol) per mouse, Muscle, 4 h p.i., i.v., mean ± SEM, n=3, read-out: %ID/g Muscle): 0.09 ± 0.03 %ID/g
- tissue uptake at 24 h ([1]; 800 uCi (330 pmol) per mouse, Muscle, 24 h p.i., i.v., mean ± SEM, n=3, read-out: %ID/g Muscle): 0.04 ± 0.02 %ID/g
- tissue uptake at 1 h ([1]; 800 uCi (330 pmol) per mouse, Spleen, 1 h p.i., i.v., mean ± SEM, n=3, read-out: %ID/g Spleen): 0.4 ± 0.09 %ID/g
- tissue uptake at 4 h ([1]; 800 uCi (330 pmol) per mouse, Spleen, 4 h p.i., i.v., mean ± SEM, n=3, read-out: %ID/g Spleen): 0.28 ± 0.06 %ID/g
- tissue uptake at 24 h ([1]; 800 uCi (330 pmol) per mouse, Spleen, 24 h p.i., i.v., mean ± SEM, n=3, read-out: %ID/g Spleen): 0.13 ± 0.08 %ID/g
- total cell uptake (U373MG cells; 0.5 h): 2.86 ± 0.10%
- receptor specific cell uptake (U373MG cells; 0.5 h): 1.71%
- total cell uptake (U373MG cells; 4 h): 4.91 ± 0.22%
- receptor specific cell uptake (U373MG cells; 4 h): 2.98%
- ratio of specific uptake to total uptake (U373MG cells; over 0.5-4 h): 60.21 ± 1.19%
- stability in aqueous solution [2]: good stability
- fraction unbound at 2 h [3]: 0.56
